B1: ProCNP: pro-peptide of CNP, reported stable per the manufacturer's protocol (peptide, UniProt P23582 24-126, looked up)
pro-form: KPGAPPKVPRTPPAEELAEPQAAGGGQKKGDKAPGGGGANLKGDRSRLLRDLRVDTKSRAAWARLLQEHPNARKYKGANKKGLSKGCFGLKLDRIGSMSGLGC
modifications: pro-form

Columns and labels:
[1] = human serum and full blood (EDTA), room temperature, 30 min and 2 hours; CNP-22 EIA; n = 12
Experimental: We studied 12 male volunteers (mean age 29 ± 2 years, normal weight, no drug therapy, no history of cardiovascular or other diseases, 3 smokers). From all investigated subjects informed consent was obtained. Triplets of fasting blood samples were taken from all volunteers at 8 o’clock in the morning. Blood samples were collected using the 7.5 ml S-Monovette® collection system (Sarstedt, Nümbrecht, Germany) containing either clotting activator (Kaolin) for serum samples, sodium-citrate for plasma samples or Potassium–EDTA for full blood samples. All samples for baseline analyses were immediately centrifuged at 2,000 × g for 10 min at 4°C and supernatant was stored at −70°C until analysis. For mid-term analyses (30 minutes or 2 hours), plasma samples were centrifuged at 2,000 × g for 10 min at room temperature. Supernatant was removed and stored at room temperature for 30 min or 2 hours. Following blood clotting, serum samples were processed identically to plasma samples. Supernatant was saved and also stored at room temperature for 30 min or 2 hours. Full blood samples were stored at room temperature without centrifugation. […] The concentration of CNP was measured using the CNP-22 EIA Kit (#EK-012-03, Phoenix Pharmaceuticals, Karlsruhe, Germany) according to the manufacturer’s protocol. […] Data were analyzed using MedCalc® for Windows, Version 10.0.1.0 (MedCalc Software, Mariakerke, Belgium).

[2] = unknown storage conditions of blood samples; ref manufacturer's protocol; cited from earlier work
Experimental: Consequently, the stability of the CNP peptide is most likely not affected by any delay in sample processing for at least two hours. ProCNP has already been reported (manufacturer’s protocol, unknown storage conditions of blood samples) to be stable for at least 2.5 hours. Accordingly, our experiments confirmed the stability of NT-proCNP even at room temperature.

Row | Molecule | stability of CNP in serum and full blood samples [1] | time for which ProCNP is stable [2]
1 | C-type natriuretic peptide [CNP] | stable in serum and in full blood samples for at least two hours at room temperature | 
2 | B1 |  | at least 2.5 hours
